Measured values: publication PMC8876999

Experiments:
Experiment in all cases: purified protein
Type in all cases: biochemical, Homo sapiens
[1] = substrate: NC(=O)c1ccc[n+]([C@@H]2O[C@H](COP(=O)(O)OP(=O)(O)OC[C@H]3O[C@@H](n4cnc5c(N)ncnc54)[C@H](O)[C@@H]3O)[C@@H](O)[C@H]2O)c1; settings: 60 mM L-T4C, pH 7.5, Tris-HCl, varied: cofactor
[2] = substrate: NC(=O)c1ccc[n+]([C@@H]2O[C@H](COP(=O)(O)OP(=O)(O)OC[C@H]3O[C@@H](n4cnc5c(N)ncnc54)[C@H](OP(=O)(O)O)[C@@H]3O)[C@@H](O)[C@H]2O)c1; settings: 60 mM L-T4C, pH 7.5, Tris-HCl, varied: cofactor
[3] = substrate: O=C(O)[C@@H]1CSCN1; settings: 1 mM NADP+, pH 7.5, Tris-HCl, L-T4C 0-25 mM

B1: PYCR2 (Homo sapiens) (protein)
chain: MSVGFIGAGQLAYALARGFTAAGILSAHKIIASSPEMNLPTVSALRKMGVNLTRSNKETVKHSDVLFLAVKPHIIPFILDEIGADVQARHIVVSCAAGVTISSVEKKLMAFQPAPKVIRCMTNTPVVVQEGATVYATGTHALVEDGQLLEQLMSSVGFCTEVEEDLIDAVTGLSGSGPAYAFMALDALADGGVKMGLPRRLAIQLGAQALLGAAKMLLDSEQHPCQLKDNVCSPGGATIHALHFLESGGFRSLLINAVEASCIRTRELQSMADQEKISPAALKKTLLDRVKLESPTVSTLTPSSPGKLLTRSLALGGKKD
[1]
  Km: 660 ± 110 µM
  kcat: 0.36 ± 0.13 s⁻¹
  kcat/Km: 551 ± 223 M⁻¹ s⁻¹
[2]
  Km: 530 ± 120 µM
  kcat: 0.46 ± 0.02 s⁻¹
  kcat/Km: 857 ± 224 M⁻¹ s⁻¹
[3]
  Km: 6800 ± 900 µM
  kcat: 0.92 ± 0.04 s⁻¹
  kcat/Km: 136 ± 19 M⁻¹ s⁻¹
